Assay results published in patent US20260209363A1 (Chugai, published 2026).

B1: ABD094(L)-H54//IC17 (bispecific antibody, human IgG1, kappa)
heavy 1: QVQLQESGPGLVKPSETLSLTCAVSGYSISDDQAWSWVRQPPGEGLEWIGYISYSGITNYNPSLKGRVTISRDTSKNQFSLKLSSVTAADTAAYYCARSLARTTAMDYWGEGTLVTVSSASTKGPSVFPLAPSSKSTSGGTAALGCLVEDYFPEPVTVSWNSGALTSGVHTFPAVLQSSGLYSLSSVVTVPSSSLGTQTYICNVNHKPSNTKVDERVEPKSCDKTHTCPPCPAPELRRGPSVFLFPPKPKDTLMISRTPEVTCVVVDVSHEDPEVKFNWYVDGVEVHNAKTKPREEQYNSTYRVVSVLTVLHQDWLNGKEYKCKVSNKALPAPIEKTISKAKGQPREPQVCTLPPSREEMTKNQVSLSCAVKGFYPSDIAVEWESNGQPENNYKTTPPVLDSDGSFFLVSKLTVDKSRWQQGNVFSCSVMHEALHNHYTQKSLSLSP
light 1: LAEAKEAANAELDSYGVSDFYKRLIDKAKTVEGVEALKDAILAALPDIQMTQSPSSLSASVGDSVTITCQASQDISSYLNWYQQKPGKAPELLIYYGSELHSGVPSRFSGSGSGTDFTFTISSLEAEDAATYYCQQGNSLPYTFGQGTKVEIERTVAAPSVFIFPPSDRKLKSGTASVVCLLNNFYPREAKVQWKVDNALQSGNSQESVTEQDSKDSTYSLSSTLTLSKADYEKHKVYACEVTHQGLSSPVTKSFNRGEC
heavy 2: not shown
light 2: QVQLQQSGPQLVRPGASVKISCKASGYSFTSYWMHWVNQRPGQGLEWIGMIDPSYSETRLNQKFKDKATLTVDKSSSTAYMQLSSPTSEDSAVYYCALYGNYFDYWGQGTTLTVSSASVAAPSVFIFPPSDEQLKSGTASVVCLLNNFYPREAKVQWKVDNALQSGNSQESVTEQDSKDSTYSLSSTLTLSKADYEKHKVYACEVTHQGLSSPVTKSFNRGEC
B2: ABD094(H/L).N02-H54//IC17 (bispecific antibody, human IgG1, kappa)
heavy 1: LAEAKEAANAELDSYGVSDFYKRLIDKAKTVEGVEALKDAILAALPGGGGSQVQLQESGPGLVKPSETLSLTCAVSGYSISDDQAWSWVRQPPGEGLEWIGYISYSGITNYNPSLKGRVTISRDTSKNQFSLKLSSVTAADTAAYYCARSLARTTAMDYWGEGTLVTVSSASTKGPSVFPLAPSSKSTSGGTAALGCLVEDYFPEPVTVSWNSGALTSGVHTFPAVLQSSGLYSLSSVVTVPSSSLGTQTYICNVNHKPSNTKVDERVEPKSCDKTHTCPPCPAPELRRGPSVFLFPPKPKDTLMISRTPEVTCVVVDVSHEDPEVKFNWYVDGVEVHNAKTKPREEQYNSTYRVVSVLTVLHQDWLNGKEYKCKVSNKALPAPIEKTISKAKGQPREPQVCTLPPSREEMTKNQVSLSCAVKGFYPSDIAVEWESNGQPENNYKTTPPVLDSDGSFFLVSKLTVDKSRWQQGNVFSCSVMHEALHNHYTQKSLSLSP
light 1: LAEAKEAANAELDSYGVSDFYKRLIDKAKTVEGVEALKDAILAALPGGGGSDIQMTQSPSSLSASVGDSVTITCQASQDISSYLNWYQQKPGKAPELLIYYGSELHSGVPSRFSGSGSGTDFTFTISSLEAEDAATYYCQQGNSLPYTFGQGTKVEIERTVAAPSVFIFPPSDRKLKSGTASVVCLLNNFYPREAKVQWKVDNALQSGNSQESVTEQDSKDSTYSLSSTLTLSKADYEKHKVYACEVTHQGLSSPVTKSFNRGEC
heavy 2: not shown
light 2: B1 light 2
B3: ABD094(H/L).N10-H54//IC17 (bispecific antibody, human IgG1, kappa)
heavy 1: LAEAKEAANAELDSYGVSDFYKRLIDKAKTVEGVEALKDAILAALPGQVQLQESGPGLVKPSETLSLTCAVSGYSISDDQAWSWVRQPPGEGLEWIGYISYSGITNYNPSLKGRVTISRDTSKNQFSLKLSSVTAADTAAYYCARSLARTTAMDYWGEGTLVTVSSASTKGPSVFPLAPSSKSTSGGTAALGCLVEDYFPEPVTVSWNSGALTSGVHTFPAVLQSSGLYSLSSVVTVPSSSLGTQTYICNVNHKPSNTKVDERVEPKSCDKTHTCPPCPAPELRRGPSVFLFPPKPKDTLMISRTPEVTCVVVDVSHEDPEVKFNWYVDGVEVHNAKTKPREEQYNSTYRVVSVLTVLHQDWLNGKEYKCKVSNKALPAPIEKTISKAKGQPREPQVCTLPPSREEMTKNQVSLSCAVKGFYPSDIAVEWESNGQPENNYKTTPPVLDSDGSFFLVSKLTVDKSRWQQGNVFSCSVMHEALHNHYTQKSLSLSP
light 1: LAEAKEAANAELDSYGVSDFYKRLIDKAKTVEGVEALKDAILAALPGDIQMTQSPSSLSASVGDSVTITCQASQDISSYLNWYQQKPGKAPELLIYYGSELHSGVPSRFSGSGSGTDFTFTISSLEAEDAATYYCQQGNSLPYTFGQGTKVEIERTVAAPSVFIFPPSDRKLKSGTASVVCLLNNFYPREAKVQWKVDNALQSGNSQESVTEQDSKDSTYSLSSTLTLSKADYEKHKVYACEVTHQGLSSPVTKSFNRGEC
heavy 2: not shown
light 2: B1 light 2
notes: ABD094 linked via N10 linker (G) at VH and VL N-termini of the IL-6R arm; also called ABD094(H/L).NTO-H54//IC17; ABD094(H/L).NO-H54//IC17

Experiments:
human soluble IL-6R [1] = target: T1, human soluble IL-6R (human, UniProt P08887 20-357, limits assumed); experiment: in vivo KD in mouse plasma (albumin present), from total antibody, free and bound sIL6R 5 min after sIL6R; antibody 0.2 mg/kg IV
T1 construct: Soluble form; also called sIL6R; Human IL-6R
T1 sequence (looked up): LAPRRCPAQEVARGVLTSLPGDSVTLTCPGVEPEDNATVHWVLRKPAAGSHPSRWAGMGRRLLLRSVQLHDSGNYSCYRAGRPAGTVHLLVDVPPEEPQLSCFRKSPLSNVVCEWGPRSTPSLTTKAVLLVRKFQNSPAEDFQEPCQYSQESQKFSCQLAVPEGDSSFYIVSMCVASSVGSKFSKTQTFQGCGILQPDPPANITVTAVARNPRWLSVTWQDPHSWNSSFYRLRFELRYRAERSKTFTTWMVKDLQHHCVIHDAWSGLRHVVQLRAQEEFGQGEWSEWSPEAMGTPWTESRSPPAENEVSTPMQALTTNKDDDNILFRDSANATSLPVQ
Description: (§1) Next, free sIL6R in plasma was measured. The concentration of free sIL6R in plasma was measured on a fully automated ELISA system (Gyrolab xP workstation). First, sIL6R prepared at 23.4, 46.9, 93.8, 188, 375, 750, and 1500 ng/mL using a Protein-Free (PBS) Blocking Buffer (Thermo Scientific) was used as solutions for preparing the calibration curve. Mouse plasma samples were used in the measurements without diluting them. A solution of biotin-labeled H54 diluted to 10 micro g/mL using a Protein-Free (PBS) Blocking Buffer was used as a solution of the sIL6R-capturing molecule. Alexa Fluor (registered trademark) 647-labeled anti-human IL-6R antibody (R&D Systems) diluted to 1 micro g/mL using a Protein-Free (PBS) Blocking Buffer was used as a solution of the human IL-6R-detection molecule. PBS (pH 7.4) containing 0.05% TWEEN was used as a washing solution. The calibration curve solutions, mouse plasma samples, sIL6R-capturing molecule solution, sIL6R-detection molecule solution, and the washing solution were placed onto a PCR plate, and then the PCR plate was sealed with a plate sealer. After the PCR plate and the Bioaffy 200 disc were placed in the Gyrolab xP workstation, measurements were taken. Using the data processed by the Gyros Evaluater 3.6.2.30 software and the calibration curve concentrations, the concentration of free sIL6R in plasma was calculated by logistic regression using the XLfit 5.5.0.5 software.
Additionally, bound sIL6R in plasma was measured. The concentration of bound sIL6R in plasma was measured on an electrospray ionization mass spectrometer connected to a high-performance liquid chromatography (LC/ESI-MS/MS). First, H54//IC17 and sIL6R were mixed, and solutions for preparing the calibration curve of bound sIL6R were prepared at theoretical plasma concentrations of 0.0468, 0.467, 4.60, and 20.1 nmol/mL. […]

mouse albumin = target: T2, mouse albumin (mouse, UniProt P07724 25-608); experiment: SPR (Biacore T200), antibody captured by anti-human Fc antibody, mouse albumin as analyte, 25 degrees C
T2 construct: also called recombinant mouse Albumin; mouse serum albumin
Description: Binding activities of the produced antibodies against mouse albumin were evaluated using Biacore T200 (Cytiva).
As the running buffer, 50 mM Na Phosphate (pH 7.4), 150 mM NaCl, 0.05% Tween20 was used, and the evaluation was performed at 25 degrees C. First, anti-human Fc antibody (Cytiva) was used as a ligand-capturing molecule. Anti-human Fc antibody (Cytiva) was solid-phased on a Series S Sensor Chip CM4 (Cytiva) using an Amine Coupling Kit (Cytiva). Antibody solution prepared using the running buffer was allowed to interact with this CM4 sensor chip to capture approximately 120 RU of the antibody. Mouse albumin (Bioscience) was diluted to 0 and 300 nM with the running buffer and allowed to bind to the captured antibody. The chip was regenerated using 3 M MgCl₂, and measurements were performed by repeatedly capturing the antibodies. Dissociation constant (KD) of each antibody for mouse albumin was calculated using Biacore T200 Evaluation Software 2.0. Specifically, the association rate constant ka (L/mol/s) and the dissociation rate constant kd (1/s) were calculated by global fitting of the sensorgrams obtained by measurement with the 1:1 Langmuir binding model, and the dissociation constant KD (mol/L) was calculated from these values.

human soluble IL-6R [2] = target: T1, human soluble IL-6R; experiment: SPR (Biacore T200), antibody captured on Protein G, human IL-6R as analyte, 37 degrees C, no albumin
Description: Binding activities of the produced albumin switch molecules against human IL-6R were evaluated using Biacore T200 (Cytiva). As the running buffer, 50 mM Na Phosphate (pH 7.4), 150 mM NaCl, 0.05% Tween20 was used, and the evaluation was performed at 37 degrees C. First, Protein G (CALBIOCHEM) was used as a ligand-capturing molecule. Protein G (CALBIOCHEM) was solid-phased on a Series S Sensor Chip CM4 (Cytiva) using an Amine Coupling Kit (Cytiva). Antibody solution prepared using the running buffer was allowed to interact with this CM4 sensor chip to capture approximately 200 RU of the antibody. Human IL-6R used in the present measurement was prepared by an approach described in WO2018097307 (Example 3-2). Human IL-6R was diluted to 0, 100, and 400 nM with the running buffer, and allowed to bind to the captured antibody. The chip was regenerated using 3 M MgCl₂, and measurements were performed by repeatedly capturing the antibodies. Dissociation constant (KD) of each antibody for human IL-6R was calculated using Biacore T200 Evaluation Software 2.0. Specifically, the association rate constant ka (L/mol/s) and the dissociation rate constant kd (1/s) were calculated by global fitting of the sensorgrams obtained by measurement with the 1:1 Langmuir binding model, and the dissociation constant KD (mol/L) was calculated from these values.

human soluble IL-6R [3] = target: T1, human soluble IL-6R; experiment: in vivo KD in mouse plasma (albumin present), from total antibody, free and bound sIL6R 5 min after sIL6R; antibody 1 mg/kg IV
Description: as §1
Additionally, bound sIL6R in plasma was measured. The concentration of bound sIL6R in plasma was measured on an electrospray ionization mass spectrometer connected to a high-performance liquid chromatography (LC/ESI-MS/MS). First, H54//IC17 and sIL6R were mixed, and solutions for preparing the calibration curve of bound sIL6R were prepared at theoretical plasma concentrations of 0.0468, 0.467, 4.60, and 20.1 nmol/mL. The solutions for preparing the calibration curve and 1 or 2 micro L of a plasma sample were added to 75 or 150 micro g of magnetic beads (Magnosphere MS300/Carboxyl, JSR) to which anti-delta GK antibodies were solid-phased, and this was shaken at 25 degrees C. for one hour.

human soluble IL-6R [4] = target: T1, human soluble IL-6R; experiment: Gyrolab xP immunoassay of antibody-antigen complex in C57BL/6J mouse plasma (albumin present), 1 nM antibody, 4 nM antigen

Row | Kd (human soluble IL-6R [1]) [nM] | Kd (mouse albumin) [nM] | koff (mouse albumin) [s⁻¹] | kon (mouse albumin) [M⁻¹ s⁻¹] | Kd (human soluble IL-6R [2]) [nM] | koff (human soluble IL-6R [2]) [s⁻¹] | kon (human soluble IL-6R [2]) [M⁻¹ s⁻¹] | Kd (human soluble IL-6R [3]) [nM] | decrease in the signal derived from the complex, compared to H54//IC17 (human soluble IL-6R [4]) [%] | Binder
1 | 49.1 | 11.6 | 0.00131 | 113000 | 2.65 | 0.00118 | 445000 | 57.3 | – | B1
2 | – | – | – | – | – | – | – | – | 55 | B2
3 | – | – | – | – | – | – | – | – | 95 | B3
